According to patent US20230106715A1 (BIOSION, published 2023):

Legend:
[1] = biological target: T1, cynomolgus monkey Siglec15-his protein (cynomolgus monkey); test: SPR Biacore T200, antibody captured by anti-human IgG, antigen as analyte, 1:1 fit
T1 construct: In house made; also called Cynomolgus Siglec15-his; cynomolgus Siglec15
T1 chain: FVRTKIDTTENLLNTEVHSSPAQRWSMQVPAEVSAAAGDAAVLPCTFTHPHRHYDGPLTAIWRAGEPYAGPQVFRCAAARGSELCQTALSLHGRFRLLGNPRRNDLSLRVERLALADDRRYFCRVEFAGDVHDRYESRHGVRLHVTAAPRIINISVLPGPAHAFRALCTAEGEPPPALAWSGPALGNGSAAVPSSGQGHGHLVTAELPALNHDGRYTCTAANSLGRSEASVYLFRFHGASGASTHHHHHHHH
Experimental: (§1) Briefly, goat anti-human IgG (GE healthcare, Cat #BR100839, Human Antibody Capture Kit) was covalently linked to a CM5 chip (carboxy methyl dextran coated chip, GE healthcare, Cat #BR-1005-30) via primary amines, using a standard amine coupling kit provided by Biacore (GE healthcare, Pittsburgh, Pa., USA). Un-reacted moieties on the biosensor surface were blocked with ethanolamine. Then, purified anti-Siglec15 antibodies of the disclosure at the concentration of 13.3 nM and an anti-Siglec15 benchmark (ch5G12, also referred to as BM, see U.S. Patent Publication No. 20190202912A1, amino acid sequences of the heavy chain and light chain set forth in SEQ ID NOs: 24 and 25, respectively) at 13.3 nM, were respectively flowed onto the chip at a flow rate of 10 μL/min. Then, serially diluted recombinant human Siglec15-his protein (in house made, amino acid sequence set forth in SEQ ID NO: 20) or cynomolgus monkey Siglec15-his protein (in house made, amino acid sequence set forth in SEQ ID NO: 21), 2-fold serial dilution in HBS-EP⁺ buffer starting at 80 nM, were respectively flown onto the chip at a flow rate of 30 μL/min. The antigen-antibody association kinetics was followed for 2 minutes and the dissociation kinetics was followed for 10 minutes. The association and dissociation curves were fit to a 1:1 Langmuir binding model using BIAcore evaluation software.

[2] = biological target: T2, recombinant human Siglec15-his protein (human, UniProt Q6ZMC9 20-263); test: as above
T2 construct: In house made; Biotin-labeled in the capture ELISA
T2 sequence: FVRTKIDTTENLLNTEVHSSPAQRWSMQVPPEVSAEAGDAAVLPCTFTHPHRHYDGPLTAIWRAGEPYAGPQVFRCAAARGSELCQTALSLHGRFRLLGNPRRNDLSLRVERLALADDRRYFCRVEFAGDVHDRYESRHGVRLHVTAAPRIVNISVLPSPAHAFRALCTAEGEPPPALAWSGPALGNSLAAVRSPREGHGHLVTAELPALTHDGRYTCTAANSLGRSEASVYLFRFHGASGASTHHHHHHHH
Experimental: as §1

[3] = biological target: T1, cynomolgus monkey Siglec15-his protein; test: SPR Biacore T200, antibody captured by anti-mouse IgG, antigen as analyte, 1:1 fit
Experimental: (§2) Briefly, goat anti-mouse IgG (GE healthcare, Cat #BR100838, Mouse Antibody Capture Kit) was covalently linked to a CM5 chip (carboxy methyl dextran coated chip from GE healthcare, Cat #BR100530) via primary amines using a standard amine coupling kit (GE healthcare, Pittsburgh, Pa., USA) provided by Biacore. Un-reacted moieties on the biosensor surface were blocked with ethanolamine. The purified mouse anti-Siglec15 antibodies of the disclosure at the concentration of 13.3 nM, were respectively flowed onto the chip at a flow rate of 10 μL/min. Then, serially diluted human Siglec15-his protein (in house made, amino acid sequence set forth in SEQ ID NO: 20), cynomolgus monkey Siglec15-his protein (in house made, amino acid sequence set forth in SEQ ID NO: 21), or mouse Siglec15-his protein (in house made, amino acid sequence set forth in SEQ ID NO: 22), 2-fold dilution in HBS-EP⁺ buffer (provided by Biacore) starting at 80 nM, were flowed onto the chip at a flow rate of 30 μL/min. The antigen-antibody association kinetics was followed for 2 minutes and the dissociation kinetics was followed for 10 minutes. The association and dissociation curves were fit to a 1:1 Langmuir binding model using BIAcore evaluation software.

[4] = biological target: T2, recombinant human Siglec15-his protein; test: as above
Experimental: as §2

[5] = biological target: T3, mouse Siglec15-his protein (mouse); test: as above
T3 construct: In house made
T3 chain: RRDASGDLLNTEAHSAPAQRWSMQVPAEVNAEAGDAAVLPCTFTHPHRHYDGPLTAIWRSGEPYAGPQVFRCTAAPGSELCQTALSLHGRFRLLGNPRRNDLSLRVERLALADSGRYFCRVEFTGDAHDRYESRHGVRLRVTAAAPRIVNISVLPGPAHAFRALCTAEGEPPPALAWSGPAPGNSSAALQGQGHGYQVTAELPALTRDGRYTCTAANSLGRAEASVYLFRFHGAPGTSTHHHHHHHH
Experimental: as §2

B1: A2A5C7E8 (antibody, V domains shown)
VH: EVQLVQSGAEVKKPGESLRISCKGSGYSFTTYWISWVRQMPGKGLEWMGLIDPSDSYTNYSPSFQGHVTISTDKSISTAYLQWSSLKASDTAMYYCARGGYYGSEEDYWGQGTLVTVSS
VL: EIVLTQSPGTLSLSPGERATLSCRASQSVSSSRLAWFQQKSGQAPRLLIFDASSRATGIPDRFSGSGSGTDFTLTISRLEPEDFAVYYCQQYGSSPRTFGQGTKVEFK
notes: Fully human antibody from transgenic mouse hybridoma; also called A2A5C7E8-1
Q: B1 was tested. Which Kd [1] did it give?
A: 0.0681 nM

Q: And the koff [1]?
A: 8.49e-05 s⁻¹

Q: What about the kon [1] of the same binder?
A: 1.25e+06 M⁻¹ s⁻¹

Q: And the Kd [2]?
A: 0.041 nM

Q: And the koff [2]?
A: 9.98e-05 s⁻¹

Q: What about the kon [2] of the same binder?
A: 2.43e+06 M⁻¹ s⁻¹

B2: B2D7H7A3C1 (antibody, V domains shown)
VH: QVQLQQSGAELVRPGTSVQMSCKAAGYTFTNYWIGWVKQRPGHGLEWVGDIHPGINYTNNNEKFRGKATLTADTSSNTAYMQLRGLTSDDSAIYYCARVDYDYDGSYIMDYWGQGTSVTVSS
VL: QIVLSQSPALLSASPGEKVTMTCRASSSVSYMYWYQQKPGSSPKPWIYATSNLTSGVPARFSGSGSGTSYSLTISRVEAEDAATYFCQQWNSKPWTFGGGSKLEIR
notes: Mouse monoclonal antibody from hybridoma; also called mouse B2D7H7A3C1
Q: How did the Kd [3] turn out when B2 was run?
A: 0.476 nM

Q: What about the koff [3] of the same binder?
A: 0.000338 s⁻¹

Q: And the kon [3]?
A: 711000 M⁻¹ s⁻¹

Q: What about the Kd [4] of the same binder?
A: 0.0352 nM

Q: What about the koff [4] of the same binder?
A: 5.46e-05 s⁻¹

Q: What about the kon [4] of the same binder?
A: 1.55e+06 M⁻¹ s⁻¹

Q: And the Kd [5]?
A: 0.337 nM

Q: And the koff [5]?
A: 0.00445 s⁻¹

Q: And the kon [5]?
A: 1.32e+07 M⁻¹ s⁻¹

B3: B2G12H3E8 (antibody, V domains shown)
VH: QVQLKQSGAELVRPGTSVQMSCKAVGYTFTNYWIGWVKQRPGHGLEWVGDIHPGINYTNNNEKFRGKATLTADTSSSTAYMQLRGLTSDDSAIYYCARVDYDYDGSYIMDYWGQGTSVTVSS
VL: QIVLSQSPALLSASPGEKVTMTCRASSSVSYMYWYQQKPGSSPKPWIYATSNLTSGVPARFSGSGSGTSYSLTISRVEAEDAATYFCQQWNSKPWTFGGGSKLEIR
notes: Mouse monoclonal antibody from hybridoma; also called mouse B2G12H3E8
Q: How did the Kd [3] turn out when B3 was run?
A: 0.372 nM

Q: And the koff [3]?
A: 0.000371 s⁻¹

Q: What about the kon [3] of the same binder?
A: 996000 M⁻¹ s⁻¹

Q: What about the Kd [4] of the same binder?
A: 0.00858 nM

Q: And the koff [4]?
A: 1.76e-05 s⁻¹

Q: And the kon [4]?
A: 2.05e+06 M⁻¹ s⁻¹

Q: And the Kd [5]?
A: 0.423 nM

Q: And the koff [5]?
A: 0.0108 s⁻¹

Q: What about the kon [5] of the same binder?
A: 2.55e+07 M⁻¹ s⁻¹

B4: B2H2H1H7 (antibody, V domains shown)
VH: QVQLQQSGAELVRPGTSVQMSCKAAGYTFTNYWIGWVKQRPGHGLEWVGDIHPGINYTNNNEKFRGKATLTADTSSSTAYMQLRGLTSDDSAIYYCARVDYDYDGSYIMDYWGQGTSVTVSS
VL: QIILSQSPALLSASPGEKVTMTCRASSSVSYMYWYQQKPGSSPKPWIYATSNLTSGVPARFSGSGSGTSYSLTISRVEAEDAATYFCQQWNSKPWTFGGGSRLEIR
notes: Mouse monoclonal antibody from hybridoma; also called mouse B2H2H1H7; B2H2H1A7
Q: With B4 as the binder, how does the Kd [3] read?
A: 0.405 nM

Q: What about the koff [3] of the same binder?
A: 0.000352 s⁻¹

Q: What about the kon [3] of the same binder?
A: 869000 M⁻¹ s⁻¹

Q: And the Kd [4]?
A: 0.016 nM

Q: What about the koff [4] of the same binder?
A: 3.18e-05 s⁻¹

Q: And the kon [4]?
A: 1.99e+06 M⁻¹ s⁻¹

Q: And the Kd [5]?
A: 0.39 nM

Q: What about the koff [5] of the same binder?
A: 0.00737 s⁻¹

Q: What about the kon [5] of the same binder?
A: 1.89e+07 M⁻¹ s⁻¹

B5: A1E10G7H9 (antibody, V domains shown)
VH: QVQLQESGPGLVKPSGTLSLTCAVSGGSISSSNWWHWVRQPPGKGLEWIGEIYHSGNTNYKPSLKSRVTISVDKSKNQFSLKLSSVTAADTAVYYCARDEGNGWSNAFDIWGQGTMVTVSS
VL: ENVLTQSPGTLSLSPGERVTLSCRASQSVSSSYLAWYQQKPGQAPRFLIYGASGGATGIPDRFSGSGSGTDFTLTISRLEPEDFAVYYCQQYGSSPITFGQGTRLEIK
notes: Fully human antibody from transgenic mouse hybridoma
Q: How did the Kd [1] turn out when B5 was run?
A: 0.0269 nM

Q: What about the koff [1] of the same binder?
A: 0.000104 s⁻¹

Q: And the kon [1]?
A: 3.89e+06 M⁻¹ s⁻¹

Q: What about the Kd [2] of the same binder?
A: 0.0139 nM

Q: What about the koff [2] of the same binder?
A: 0.0001 s⁻¹

Q: And the kon [2]?
A: 7.18e+06 M⁻¹ s⁻¹

B6: anti-Siglec15 benchmark (ch5G12) (antibody, human IgG1, kappa, V domains shown)
VH: QVQLQQPGAELVKPGASVKMSCKASGYTFTSYWITWVIQRPGQGLEWIGDIYCGSDTMHYNEKFKNKATLTVDTSSSTAYMQLSSLTSEDSAVYYCARWWDYGSSYDYFDYWGQGTTLTVSS
VL: DIKMTQSPSSMYASLGERVTITCKASQDINSYLSWFQQKPGKSPKTLIYRANRLVDGVPSRFSGSGSGQDYSLTISSLEYEDMGIYYCLQYDEFPYTFGGGTKLEIKR
notes: ch5G12 (US 20190202912A1); also called BM; Siglec15-ch5G9
Q: B6 was tested. Which Kd [1] did it give?
A: 0.448 nM

Q: What about the koff [1] of the same binder?
A: 0.000788 s⁻¹

Q: What about the kon [1] of the same binder?
A: 1.76e+06 M⁻¹ s⁻¹

Q: And the Kd [2]?
A: 0.265 nM

Q: And the koff [2]?
A: 0.00172 s⁻¹

Q: And the kon [2]?
A: 6.51e+06 M⁻¹ s⁻¹
